Laboratory results: patent US20060142171A1, “Novel alkaline protease” (priority 2003, published 2006)

Assays:
[1] = biological target: T1, N-succinyl-Phe-Leu-Phe thiobenzyl ester
T1 chain: FLF

[2] = biological target: T2, N-succinyl-Ala-Ala-Pro-Phe-p-nitroanilide
T2 chain: AAPF

[3] = biological target: T3, N-succinyl-Leu-Tyr-7-amino-4-methyl coumarin
T3 chain: LY

[4] = biological target: T4, N-succinyl-Leu-Leu-Val-Tyr-7-amino-4-methyl coumarin
T4 chain: LLVY

[5] = biological target: T5, N-succinyl-Ala-Ala-Phe-7-amino-4-methyl coumarin
T5 chain: AAF

[6] = biological target: T6, N-succinyl-Ala-Ala-Pro-Leu-p-nitroanilide
T6 chain: AAPL

[7] = substrate: CCCC(=O)Oc1ccc([N+](=O)[O-])cc1; assay: Assay with synthetic peptide, pNA, AMC, NNap and ester substrates (kinetic parameters); assay type: biochemical, Nesterenkonia sp. AL; conditions: other: substrate marked b (footnote not given), 50 mM Tris-HCl buffer, pH 9
[8] = Circular dichroism spectroscopy; assay type: physicochemical
Experimental: The conformational stability of the AL protease was examined by circular dichroism (CD) spectroscopy and compared with that of Subtilisin Carlsberg (bacterial protease, type VIII; Sigma Chemical Co., St. Louis, USA). The CD spectra of the proteins were obtained on a Jasco spectropolarimeter model J-720, at 25° C. in the far UV range from 195 to 250 nm at a scan rate of 10 nm/min using a sample cell path length of 0.1 cm. The ellipticity values (θ) for every nm wavelength increase were obtained in mdeg directly from the instrument and were recorded online in a computer. An average of 6 scans was calculated and the corresponding no-enzyme spectra were subtracted for each sample.

[9] = Differential scanning calorimetry; assay type: physicochemical
Experimental: The influence of different parameters including pH, calcium ions, EDTA, and detergent on thermal stability of the AL protease was investigated by differential scanning calorimetry (DSC). Comparative studies were also performed with Subtilisin Carlsberg. Thermal scans of AL protease (0.3 mg protein/ml) and subtilisin (2.5 mg protein/ml in the presence of 1 mM phenyl-methanesulfonyl fluoride (PMSF); Sigma) were performed by increasing temperature from 25° C. to 95° C. at a scan rate of 1° C. per min on a VP-DSC (MicroCal, Northampton, Mass.). The thermograms were corrected by subtracting the base line, obtained from a blank scan of the no-enzyme solution, and normalized for protein concentration. The unfolding transition of the AL protease was fitted to a two-state model. The Tm (temperature at which heat capacity change is a maximum), the calorimetric (or true) enthalpy ΔHcal (peak area), and van't Hoff (or apparent) enthalpy AHVH (calculated from the shape of thermogram) were calculated using the Origin software provided by MicroCal.

[10] = Autolytic degradation by SDS-PAGE; assay type: physicochemical; conditions: incubation at 50° C. up to 24 h; not shown
Experimental: Autolytic degradation of the protease was investigated by SDS-PAGE. The AL protease and Subtilisin Carlsberg were individually incubated in 10 mM Tris-HCl buffer 8 for 24 h at 50° C. Electrophoresis of the enzyme samples taken at different time intervals was performed according to the method of Laemmli, on 12% polyacrylamide gel using a Mini Protean II equipment (Bio-Rad, Richmond, Calif.).

[11] = 0.1% (w/v) SDS vs untreated, pH 10.0
[12] = untreated, 10 mM glycine-NaOH buffer, pH 10.0 (subtilisin with 1 mM PMSF)
[13] = untreated, 10 mM glycine-NaOH buffer, pH 10.0 (subtilisin with 1 mM PMSF), listed as Subtilisin

B1: AL protease (alkaline protease from Nesterenkonia sp. nov. strain AL, DSM 15380) (protein)
chain: QNPADSPHIGKVFFSTNQGDFVCSANIVASANQSTVATAGHCLHDGNGGQFARNFVFAPAYDYGESEHGVWAAEELVTSAEWANRGDFEHDYAFAVLETKGGTTVQQQVGTASPIAFNQPRGQYYSAYGYPAAAPFNGQELHSCHGTATNDPMGSSTQGIPCNMTGGSSGGPWFLGQGTGGAQNSVNSYGYTFLPDVMFGPYFGSGAQQNYNYAST
specific activity toward synthetic substrate [1]: only able of hydrolysing those substrates at a very low rate when high substrate concentration (10 mM) was used; between 0.002 to 0.008 U/mg | Km [2]: 2970 µM | kcat [2]: 4390 s⁻¹ | kcat/Km [2]: 1.48e+06 M⁻¹ s⁻¹ | specific activity toward synthetic substrate [3]: only able of hydrolysing those substrates at a very low rate when high substrate concentration (10 mM) was used; between 0.002 to 0.008 U/mg | Km [4]: 15 µM | kcat [4]: 51.7 s⁻¹ | kcat/Km [4]: 3.45e+06 M⁻¹ s⁻¹ | specific activity toward synthetic substrate [5]: only able of hydrolysing those substrates at a very low rate when high substrate concentration (10 mM) was used; between 0.002 to 0.008 U/mg | Km [6]: 9300 µM | kcat [6]: 6650 s⁻¹ | kcat/Km [6]: 715000 M⁻¹ s⁻¹ | Km [7]: 1050 µM | kcat [7]: 63.7 s⁻¹ | kcat/Km [7]: 60800 M⁻¹ s⁻¹

B2: Subtilisin Carlsberg: bacterial protease, type VIII; Sigma; one of the first commercial alkaline proteases (protein, UniProt P00780 106-379, looked up)
Subtilisin Carlsberg: AQTVPYGIPLIKADKVQAQGFKGANVKVAVLDTGIQASHPDLNVVGGASFVAGEAYNTDGNGHGTHVAGTVAALDNTTGVLGVAPSVSLYAVKVLNSSGSGSYSGIVSGIEWATTNGMDVINMSLGGASGSTAMKQAVDNAYAKGVVVVAAAGNSGSSGNTNTIGYPAKYDSVIAVGAVDSNSNRASFSSVGAELEVMAPGAGVYSTYPTNTYATLNGTSMASPHVAGAAALILSKHPNLSASQVRNRLSSTATYLGSSFYYGKGLINVEAAAQ
Secondary structure in the presence of SDS ([8]; 0.1-1% (w/v) SDS, data not shown): complete loss of secondary structure | Secondary structure after incubation ([8]; 24 h at 50° C., 10 mM glycine-NaOH buffer, pH 10.0): substantial loss of structure | Tm on addition of Ca^2+ ([9]; 1 mM PMSF present, pH 10.0): remained unchanged | Lowering of Tm ([9]; 10 mM EDTA, 1 mM PMSF present): 10 °C | ΔHcal ([9]; 10 mM EDTA, 1 mM PMSF present): 152 kcal/mol | Decrease in Tm [9, 11]: 13 °C | Decrease in ΔHcal [9, 11]: 59 kcal/mol | Further lowering in Tm ([9]; 0.2% SDS vs 0.1% SDS, pH 10.0): 3 °C | Further lowering in ΔHcal ([9]; 0.2% SDS vs 0.1% SDS, pH 10.0): 41 kcal/mol | Tm ([9]; +0.1% SDS, pH 10.0): 54.5 ± 0.02 °C | ΔHcal ([9]; +0.1% SDS, pH 10.0): 144 ± 0.5 kcal/mol | Tm ([9]; +0.2% SDS, pH 10.0): 51.1 ± 0.01 °C | ΔHcal ([9]; +0.2% SDS, pH 10.0): 103 ± 0.2 kcal/mol | Tm [9, 12]: 67.3 °C | ΔHcal [9, 12]: 203 kcal/mol | Tm [9, 13]: 67.3 ± 0.02 °C | ΔHcal [9, 13]: 203 ± 0.9 kcal/mol | Degradation on gel electrophoresis [10]: considerable degradation
